Laboratory results published in US9814672B2, “Echogenic vehicle for clinical delivery of plasminogen activator and other fibrin-binding therapeutics to thrombi” (priority 2007, dated 2017).
Like-named read-outs stand apart in the source and are kept apart here. Each block holds one substance with its values, some of them ahead of it.

Legend:
[1] = tPA enzyme activity after PPACK inactivation, paranitroanilide-substrate method; assay type: biochemical; settings: S.E., n=3
Description: Reconstituted tPA was incubated with a fivefold molar excess of PPACK in 0.2 M L-arginine in 0.05M phosphate buffer, pH 7.2, with 0.01% Tween 20 for 1 hour at room temperature, followed by dialysis against reaction buffer to remove unreacted PPACK. A control preparation was carried through the procedure without PPACK and all procedures involving PPACK were protected from light. Enzyme activity in PPACK-treated and control tPA preparations was measured with a […] paranitroanilide-substrate method (Ranby and Wallen, 1981).

fibrin [2] = biological target: T1, fibrin (Homo sapiens, UniProt P02671+P02675+P02679); experiment: Two-stage fibrin pad ELISA, Scatchard and van't Hoff analysis; assay type: binding; settings: for Avidity: Kassoc × no. ligand molecules/liposome; for Kassoc: detergent-treated preparation
T1 construct: purchased Calbiochem (EMD Biosciences, Inc., La Jolla, Calif.)
T1 sequence (P02671 36-629 limits assumed): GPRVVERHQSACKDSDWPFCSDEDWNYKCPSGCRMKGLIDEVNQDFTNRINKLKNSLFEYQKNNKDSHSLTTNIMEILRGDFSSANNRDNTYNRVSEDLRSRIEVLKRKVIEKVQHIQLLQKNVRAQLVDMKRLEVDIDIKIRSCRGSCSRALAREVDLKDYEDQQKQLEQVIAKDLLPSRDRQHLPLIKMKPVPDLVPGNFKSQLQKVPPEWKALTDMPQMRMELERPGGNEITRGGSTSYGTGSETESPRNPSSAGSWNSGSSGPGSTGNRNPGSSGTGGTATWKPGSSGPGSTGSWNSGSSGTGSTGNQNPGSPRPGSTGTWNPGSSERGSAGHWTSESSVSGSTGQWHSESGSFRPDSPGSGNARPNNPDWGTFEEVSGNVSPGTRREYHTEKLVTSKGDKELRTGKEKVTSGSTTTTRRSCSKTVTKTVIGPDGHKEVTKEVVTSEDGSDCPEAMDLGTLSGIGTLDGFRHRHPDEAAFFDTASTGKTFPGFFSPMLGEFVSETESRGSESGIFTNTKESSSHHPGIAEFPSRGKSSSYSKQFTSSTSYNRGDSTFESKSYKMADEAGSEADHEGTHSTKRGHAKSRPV
T1 sequence (P02675 45-491 limits assumed): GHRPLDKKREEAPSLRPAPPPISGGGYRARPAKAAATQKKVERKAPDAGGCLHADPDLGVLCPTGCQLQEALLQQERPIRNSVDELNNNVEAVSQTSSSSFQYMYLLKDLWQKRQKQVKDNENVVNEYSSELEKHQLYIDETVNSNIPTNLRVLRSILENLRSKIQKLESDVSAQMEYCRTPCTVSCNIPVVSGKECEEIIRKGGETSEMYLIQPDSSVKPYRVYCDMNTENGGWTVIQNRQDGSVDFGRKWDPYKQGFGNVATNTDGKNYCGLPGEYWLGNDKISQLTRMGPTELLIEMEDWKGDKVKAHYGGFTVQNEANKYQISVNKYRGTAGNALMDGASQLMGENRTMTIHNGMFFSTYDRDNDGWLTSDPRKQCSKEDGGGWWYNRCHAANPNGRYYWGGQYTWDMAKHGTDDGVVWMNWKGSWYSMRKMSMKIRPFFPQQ
T1 sequence (P02679 27-437 isoform P02679-2 limits assumed): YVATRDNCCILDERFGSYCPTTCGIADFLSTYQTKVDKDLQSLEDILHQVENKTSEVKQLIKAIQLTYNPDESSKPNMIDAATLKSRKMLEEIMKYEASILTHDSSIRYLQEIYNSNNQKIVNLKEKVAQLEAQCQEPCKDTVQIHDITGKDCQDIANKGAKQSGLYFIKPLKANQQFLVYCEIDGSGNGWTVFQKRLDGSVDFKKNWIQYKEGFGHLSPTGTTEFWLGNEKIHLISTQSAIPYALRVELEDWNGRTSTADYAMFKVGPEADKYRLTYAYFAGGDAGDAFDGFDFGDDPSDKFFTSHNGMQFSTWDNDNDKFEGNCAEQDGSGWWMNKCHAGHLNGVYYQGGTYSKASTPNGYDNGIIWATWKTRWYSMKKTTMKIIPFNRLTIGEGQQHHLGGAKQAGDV
Description: Added 100 μl 0.2% BSA/PBS to each well and incubated at 37° C. for 1 hour. All subsequent incubations were also at 37° C. Aspirated the wells and washed the plate 3× with PBS-T. Added Activase dilutions (10, 5, 2.5, 1.25, and 0.625 μg/ml PBS-T) to replicate wells ([…]). Incubated for 2 hours. Removed the contents of each well and pooled all samples within each dilution. Stored pooled samples at 4° C. For tPA-ELIP dilutions (in PBS), the third wash before adding the samples was with PBS. Stored the pooled tPA-ELIP samples in polypropylene tubes.
Added monoclonal anti-tPA capture antibody (Ab) (5 μg/ml coating buffer; […]) to rows B, C, E and G of a fresh microplate. Incubated in a humidified chamber at 4° C. overnight. All subsequent incubations were in humidified chambers at 37° C. at volumes of 50 μl/well, followed by aspiration of wells and 3× washes with PBS-T. Blocked all rows with conjugate buffer for 1 hour. Added tPA standards (50, 25, 12.5, 6.25 and 3.13 ng/ml) and pooled sample dilutions (in PBS-T) in duplicate to sample (B, C, E, G) and background (A, D, F, H) wells. Incubated for 2 hours. Added secondary detection Ab (10 μg sheep anti-tPA/ml 0.1% BSA in PBS-T) to all wells and incubated 1 hour, followed by a conjugate incubation (3,000× diluted with conjugate buffer; 1 hour). Added 50 μl of substrate buffer+500 of substrate (1 tablet/5 ml substrate buffer) to each well. Incubated at 37° for 15 minutes. Immediately quenched with 5 μl of 1M sodium hydroxide/well. Read the plate at 405 nm. Determined net absorbance (A405) by subtracting background OD from sample OD (e.g., B4-A4 or E7-F7).
Calculated the undiluted tPA concentrations of each pooled sample from the standard curve. These represented the free fractions ([F]) of the sample dilutions after equilibrium incubation with fibrin. Obtained the bound concentrations ([B]) by subtracting the free values from the total tPA concentration of the starting dilutions. Prepared Scatchard plots by plotting [B] (x-axis) vs. B/F (y-axis). The slope=−Kassoc and the y-intercept=Kassoc[n], where [n] was the concentration of exposed tPA binding sites on the fibrin pads.
Dilutions of untreated, sham-treated (control) and PPACK-treated (tPA(P)) tPA, as well as tPA(P) conjugated to ELIP (tPA(P)-ELIP), were incubated on replicate fibrin pads, prepared in microplate wells according to a modification of the method of Edgell et al. (1996). Human thrombin was added to a solution of 0.5 mg/ml of human fibrinogen in 0.02M phosphate-buffered saline, pH 7.4 (PBS), to a final concentration of 0.125 IU thrombin/ml; 100 μl of this solution was immediately added to each well and incubated at 37° C. for 45 minutes, followed by overnight drying of the plate at 45° C. After incubation with 100 μl/well of 0.2% BSA in PBS for 1 hour, samples (100 μl/well) were incubated for 2 hours at 37° C. For thermodynamic analyses, this incubation was performed at three temperatures (5, 24 and 37° C.). In order to determine the concentration of free tPA remaining in solution after incubation of tPA with fibrin, from which the concentration of bound tPA could be calculated for Scatchard analysis, the contents of duplicate wells were recovered, pooled and subsequently assayed for immunoreactive tPA in a standard quantitative sandwich ELISA.
Briefly, Nunc MaxiSorp microtiter plates were coated with 5 μg/ml of a monoclonal anti-tPA capture antibody (Ab) in 0.05M sodium bicarbonate, pH 9.6, overnight at 4° C. All incubation volumes were 50 μl/well. One-half of wells were left uncoated for determination of nonspecific binding. After aspirating well contents, all wells were blocked with conjugate buffer (1% BSA in 0.05M Tris buffer, pH 8.0, with 0.02% sodium azide) for 1 hour. From this point, all incubations were at 37° C. Each incubation was followed by aspiration of well contents and washes (3×) with PBS-T (PBS with 0.05% Tween 20). […]

fibrin [3] = biological target: T1, fibrin; experiment: as above; settings: undiluted fresh-frozen rabbit serum, 37° C.; read-out: binding affinity (KD) in serum

- Percent Starting Activity [1]: 99.8%
- Kd (fibrin [2]; S.E., n=3, read-out: High-Affinity KD @ 37° C.): 5.92 nM
Substance: Sham (Control): tPA control preparation carried through the inactivation procedure without PPACK [reference compound]

- cross-reactivity with fibrin (fibrin [2]; competition with tPA samples, Example 12): 5%
Substance: Fibrinogen [reference compound]

- Kd (fibrin [3]): 3.91 nM
- Avidity (fibrin [2]; +Tween 20): 0.151 M^−1/LIP × 10^12
- Avidity (fibrin [2]; No Detergent): 0.480 M^−1/LIP × 10^12
- ΔS° (fibrin [2]; high affinity only): +14.7 cal/mole°
- ΔG° (fibrin [2]; high affinity only, 278 K): -11.1 kcal/mol
- Kassoc (fibrin [2]; high affinity only, 278 K): 5.83e+08 M⁻¹
- ΔG° (fibrin [2]; high affinity only, 297 K): -11.5 kcal/mol
- Kassoc (fibrin [2]; high affinity only, 297 K): 3.01e+08 M⁻¹
- ΔG° (fibrin [2]; high affinity only, 310 K): -11.6 kcal/mol
- Kassoc (fibrin [2]; high affinity only, 310 K): 1.51e+08 M⁻¹
- ΔH° (fibrin [2]; high affinity only, van't Hoff plot): -7.08 kcal/mol
- Kd (fibrin [2]; thiolation buffers: +Tween 20, read-out: KD @ 37° C.): 6.62 nM
- Kd (fibrin [2]; thiolation buffers: No Detergent, read-out: KD @ 37° C.): 1.9 nM
Substance: tPA(P)-ELIP: PPACK-inactivated tPA conjugated by thioether linkage to MPB-ELIP (PC:MPB-PE:DPPG:CH 69:8:8:15); made without detergent or with 0.01% Tween 20
